Laboratory results published in patent US20040254364A1.

Columns and labels:
[1] = target: Manduca sexta brush border membrane vesicles (BBMV); experiment: 125I-labelled phage added to 10 µg of BBMV, no competitor
[2] = target: Manduca sexta brush border membrane vesicles (BBMV); experiment: micropanning on 100 µg of BBMV; control sample, set to 1.0 by definition
[3] = target: Bovine serum albumin (bovine) (UniProt P02769); experiment: micropanning in microtiter wells; control sample, set to 1.0 by definition
[4] = target: Manduca sexta brush border membrane vesicles (BBMV); experiment: 125I-labelled phage added to 10 µg of BBMV, no competitor, 105,252 cpm added
[5] = target: Manduca sexta brush border membrane vesicles (BBMV); experiment: 125I-labelled phage added to 10 µg of BBMV with 100-fold excess of unlabeled Cry1Ac
[6] = target: Manduca sexta brush border membrane vesicles (BBMV); experiment: 125I-labelled phage on 10 µg of BBMV, competitor 100-fold excess of unlabeled Cry1Ac
[7] = target: Manduca sexta brush border membrane vesicles (BBMV); experiment: 125I-labelled phage added to 10 µg of BBMV with 100-fold excess of unlabeled Cry1Ac, 105,252 cpm added
[8] = target: Manduca sexta brush border membrane vesicles (BBMV); experiment: micropanning on 100 µg of BBMV with an excess of free Cry1Ac as competitor, yield relative to BBMV without competitor
[9] = target: Manduca sexta brush border membrane vesicles (BBMV); experiment: 125I-labelled control phage added to 10 µg of BBMV, no competitor
[10] = target: Manduca sexta brush border membrane vesicles (BBMV); experiment: 125I-labelled control phage added to 10 µg of BBMV, no competitor, 62,319 cpm added
[11] = target: Manduca sexta brush border membrane vesicles (BBMV); experiment: 125I-labelled control phage added to 10 µg of BBMV with 100-fold excess of unlabeled Cry1Ac
[12] = target: Manduca sexta brush border membrane vesicles (BBMV); experiment: 125I-labelled control phage added to 10 µg of BBMV with 100-fold excess of unlabeled Cry1Ac, 62,319 cpm added
[13] = target: Manduca sexta brush border membrane vesicles (BBMV); experiment: 125I-labelled toxin added to 10 µg of BBMV, no competitor
[14] = target: Manduca sexta brush border membrane vesicles (BBMV); experiment: 125I-labelled toxin added to 10 µg of BBMV, no competitor, 98,242 cpm added
[15] = target: Manduca sexta brush border membrane vesicles (BBMV); experiment: 125I-labelled toxin added to 10 µg of BBMV with 100-fold excess of unlabeled Cry1Ac
[16] = target: Manduca sexta brush border membrane vesicles (BBMV); experiment: 125I-labelled toxin on 10 µg of BBMV, competitor 100-fold excess of unlabeled Cry1Ac
[17] = target: Manduca sexta brush border membrane vesicles (BBMV); experiment: 125I-labelled toxin added to 10 µg of BBMV with 100-fold excess of unlabeled Cry1Ac, 98,242 cpm added

Bovine serum albumin (bovine), sequence (P02769 25-607 limits assumed): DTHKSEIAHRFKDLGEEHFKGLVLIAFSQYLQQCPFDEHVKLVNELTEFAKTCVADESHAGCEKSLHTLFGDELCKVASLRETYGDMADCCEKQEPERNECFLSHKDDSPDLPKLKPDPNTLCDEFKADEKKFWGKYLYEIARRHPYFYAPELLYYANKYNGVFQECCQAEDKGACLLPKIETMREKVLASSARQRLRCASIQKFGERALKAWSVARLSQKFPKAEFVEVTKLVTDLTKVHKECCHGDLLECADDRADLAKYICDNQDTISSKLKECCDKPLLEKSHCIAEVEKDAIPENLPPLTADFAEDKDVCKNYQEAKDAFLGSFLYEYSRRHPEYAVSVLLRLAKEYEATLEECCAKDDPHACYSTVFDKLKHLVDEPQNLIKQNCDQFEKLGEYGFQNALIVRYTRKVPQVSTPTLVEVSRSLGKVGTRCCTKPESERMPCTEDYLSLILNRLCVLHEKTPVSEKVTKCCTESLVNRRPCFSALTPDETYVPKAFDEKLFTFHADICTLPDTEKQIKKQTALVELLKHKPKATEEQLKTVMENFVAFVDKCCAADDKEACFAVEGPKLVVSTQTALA

Row | Substance | % cpm bound [1] | relative yield (relative to control sample) [2] | relative yield (relative to control sample) [3] | mean cpm bound (n = 2) [4] | % cpm bound [5] | % competition [6] | mean cpm bound (n = 2) [7] | relative yield (relative to control sample) [8] | % cpm bound [9] | mean cpm bound (n = 2) [10] | % cpm bound [11] | mean cpm bound (n = 2) [12] | % cpm bound [13] | mean cpm bound (n = 2) [14] | % cpm bound [15] | % competition [16] | mean cpm bound (n = 2) [17]
1 | 1Ac-fUSE5 phage (filamentous fd phage displaying the Cry1Ac-cpIII fusion protein) (from UniProt P05068 1-611; P03661 48-424) | 11.7% | 1 | 1 | 12300 cpm | 10.7% | 8.5% | 11200 cpm | 1.7 |  |  |  |  |  |  |  |  | 
2 | WT-fUSE5 phage (fUSE5 vector phage without insert, grown in JM109) (from UniProt P03661 19-424) |  | 1 | 1 |  |  |  |  | 0.24 | 6.1% | 3780 cpm | 7.6% | 4740 cpm |  |  |  |  | 
3 | purified, trypsin-activated HD-73 Cry1Ac toxin (65 kDa) from Bacillus thuringiensis subsp. kurstaki (from UniProt P05068 29-623) |  |  |  |  |  |  |  |  |  |  |  |  | 12.9% | 12700 cpm | 4.3% | 66.5% | 4260 cpm
